Experimental data from the supplement of paper PMC9112550, “Optimization of the antimicrobial peptide Bac7 by deep mutational scanning” (BMC Biology, 2022).

system: Escherichia coli TOP10; experiment: shrunken log2 fold change of peptide-encoding DNA abundance (4.5 h post-induction vs induction); higher = less antimicrobial activity (less host growth inhibition); conditions: time post-induction: 4.5 h; library: site-saturation at positions 5, 18, 19, 20
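Also: peptides expressed intracellularly from a pBAD plasmid library in pooled LB shake-flask culture, induced with 0.3% L-arabinose, DNA abundance read by NGS, three biological replicates, DESeq2 with apeglm shrinkage.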

Row | Sequence | shrunken log2 fold change
1 | RRIRDRPPRLPRPRPRPTCYPRP | 0.289
2 | RRIRDRPPRLPRPRPRPTETPRP | -0.000924
3 | RRIRDRPPRLPRPRPRPTFGPRP | 0.228
4 | RRIRDRPPRLPRPRPRPTHMPRP | 0.381
5 | RRIRDRPPRLPRPRPRPTHTPRP | -0.311
6 | RRIRDRPPRLPRPRPRPTHVPRP | 0.244
7 | RRIRDRPPRLPRPRPRPTIEPRP | 0.324
8 | RRIRDRPPRLPRPRPRPTIMPRP | -0.347
9 | RRIRDRPPRLPRPRPRPTIQPRP | -0.0142
10 | RRIRDRPPRLPRPRPRPTKVPRP | -0.274
11 | RRIRDRPPRLPRPRPRPTMWPRP | 0.176
12 | RRIRDRPPRLPRPRPRPTRLPRP | 0.491
13 | RRIRDRPPRLPRPRPRPTRWPRP | 1.38
14 | RRIRDRPPRLPRPRPRPTSAPRP | 0.418
15 | RRIRDRPPRLPRPRPRPTSCPRP | 0.037
16 | RRIRDRPPRLPRPRPRPTSGPRP | 0.151
17 | RRIRDRPPRLPRPRPRPTVAPRP | 1.14
18 | RRIRDRPPRLPRPRPRPTVQPRP | 0.158
19 | RRIRDRPPRLPRPRPRPTWEPRP | 1.13
20 | RRIRDRPPRLPRPRPRPVAPPRP | 0.445
21 | RRIRDRPPRLPRPRPRPVEMPRP | -0.0847
22 | RRIRDRPPRLPRPRPRPVFNPRP | -0.353
23 | RRIRDRPPRLPRPRPRPVFTPRP | 0.076
24 | RRIRDRPPRLPRPRPRPVGMPRP | 0.37
25 | RRIRDRPPRLPRPRPRPVGRPRP | 0.301

Row | Sequence | shrunken log2 fold change
26 | RRIRDRPPRLPRPRPRPVGWPRP | 0.945
27 | RRIRDRPPRLPRPRPRPVHTPRP | -0.00587
28 | RRIRDRPPRLPRPRPRPVIDPRP | 0.35
29 | RRIRDRPPRLPRPRPRPVILPRP | -0.146
30 | RRIRDRPPRLPRPRPRPVIQPRP | 0.474
31 | RRIRDRPPRLPRPRPRPVKPPRP | -0.0934
32 | RRIRDRPPRLPRPRPRPVKTPRP | 0.0145
33 | RRIRDRPPRLPRPRPRPVLDPRP | -0.0729
34 | RRIRDRPPRLPRPRPRPVLNPRP | -0.165
35 | RRIRDRPPRLPRPRPRPVLSPRP | -0.0284
36 | RRIRDRPPRLPRPRPRPVMYPRP | -0.166
37 | RRIRDRPPRLPRPRPRPVNDPRP | -0.163
38 | RRIRDRPPRLPRPRPRPVPEPRP | 0.252
39 | RRIRDRPPRLPRPRPRPVPYPRP | -0.244
40 | RRIRDRPPRLPRPRPRPVQAPRP | 0.0233
41 | RRIRDRPPRLPRPRPRPVQMPRP | -0.0835
42 | RRIRDRPPRLPRPRPRPVQVPRP | 0.011
43 | RRIRDRPPRLPRPRPRPVRAPRP | 0.325
44 | RRIRDRPPRLPRPRPRPVSFPRP | -0.191
45 | RRIRDRPPRLPRPRPRPVSRPRP | 0.218
46 | RRIRDRPPRLPRPRPRPVVIPRP | 2.82
47 | RRIRDRPPRLPRPRPRPVVSPRP | 0.0706
48 | RRIRDRPPRLPRPRPRPVWDPRP | 0.107
49 | RRIRDRPPRLPRPRPRPVWEPRP | 0.0337
50 | RRIRDRPPRLPRPRPRPVWNPRP | 0.00745

Row | Sequence | shrunken log2 fold change
51 | RRIRDRPPRLPRPRPRPVYHPRP | -0.0857
52 | RRIRDRPPRLPRPRPRPVYIPRP | -0.497
53 | RRIRDRPPRLPRPRPRPWCHPRP | -0.407
54 | RRIRDRPPRLPRPRPRPWCVPRP | 0.083
55 | RRIRDRPPRLPRPRPRPWDIPRP | -0.0043
56 | RRIRDRPPRLPRPRPRPWDMPRP | -0.133
57 | RRIRDRPPRLPRPRPRPWEAPRP | -0.0176
58 | RRIRDRPPRLPRPRPRPWFPPRP | -0.234
59 | RRIRDRPPRLPRPRPRPWGMPRP | -0.165
60 | RRIRDRPPRLPRPRPRPWKCPRP | 0.118
61 | RRIRDRPPRLPRPRPRPWKYPRP | -0.331
62 | RRIRDRPPRLPRPRPRPWMDPRP | -0.0272
63 | RRIRDRPPRLPRPRPRPWMNPRP | -0.15
64 | RRIRDRPPRLPRPRPRPWPHPRP | -0.00987
65 | RRIRDRPPRLPRPRPRPWPNPRP | 0.0619
66 | RRIRDRPPRLPRPRPRPWREPRP | 0.00581
67 | RRIRDRPPRLPRPRPRPWRLPRP | -0.264
68 | RRIRDRPPRLPRPRPRPWRSPRP | 0.105
69 | RRIRDRPPRLPRPRPRPWSSPRP | 0.0046
70 | RRIRDRPPRLPRPRPRPWTPPRP | -0.0489
71 | RRIRDRPPRLPRPRPRPWWEPRP | 0.186
72 | RRIRDRPPRLPRPRPRPWYRPRP | -0.0745
73 | RRIRDRPPRLPRPRPRPWYTPRP | -0.0848
74 | RRIRDRPPRLPRPRPRPYAMPRP | 0.168
75 | RRIRDRPPRLPRPRPRPYCFPRP | -0.744
